Laboratory results published in patent publication US20190248902A1 (published 2019).
Where a chain is given by its changes, count along the chain named.

T1: Mouse ASGR-1 (mouse, UniProt P34927 1-284)
T1 construct: Expressed on HEK 293 cells or as membrane prep on beads; cDNA GenBank BC022106.1; also called muASGR-1; mASGR-1
T1 sequence: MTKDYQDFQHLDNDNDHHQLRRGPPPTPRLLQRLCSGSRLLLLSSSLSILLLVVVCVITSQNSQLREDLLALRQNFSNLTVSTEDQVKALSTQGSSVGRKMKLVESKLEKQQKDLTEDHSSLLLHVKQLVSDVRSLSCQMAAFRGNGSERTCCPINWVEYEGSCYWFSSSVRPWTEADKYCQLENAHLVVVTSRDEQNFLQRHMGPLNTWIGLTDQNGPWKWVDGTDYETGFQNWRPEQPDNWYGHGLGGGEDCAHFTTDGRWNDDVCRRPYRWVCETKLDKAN

T2: Human ASGR-2 (human, UniProt P07307 1-311)
T2 construct: Expressed on HEK 293 cells; cDNA GenBank NM_080913.3; also called huASGR-2; hASGR-2
T2 sequence: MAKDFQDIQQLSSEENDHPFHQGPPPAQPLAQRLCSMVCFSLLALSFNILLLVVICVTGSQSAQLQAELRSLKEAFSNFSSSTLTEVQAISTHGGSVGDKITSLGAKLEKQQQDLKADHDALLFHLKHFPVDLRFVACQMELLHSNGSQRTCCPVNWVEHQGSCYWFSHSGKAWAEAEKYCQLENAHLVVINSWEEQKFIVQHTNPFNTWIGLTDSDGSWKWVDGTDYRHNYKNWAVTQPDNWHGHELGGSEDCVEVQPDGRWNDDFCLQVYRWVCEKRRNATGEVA

B1: 4B1 (antibody, V domains shown)
VH: QVQLQESGPGLVKPSETLSLTCSVSGDSISSYSWSWIRQPAGKGLEWIGRIYTSGSTNYIPSLKSRITMSVDTSKKQFSLKLSSVTAADTAVYYCARDLKSSGCLFFDYWGQGTLVTVSS
VL: DIQMTQSPSSLSASVGDRVTITCRASHTIRTYLNWYQQKPGKAPKLLIYAASSLQSGVPSRINGSGSGTDFTLTITNLQPEDFATYYCQQSYNISFTFGPGTKVDIK
notes: Tested as hybridoma supernatant at normalized concentration
B2: 4H6 (antibody, V domains shown)
VH: QVQLVQSGAEVKKPGASVKVSCKASGYTFTDYYLHWVRQAPGQGLEWMGWIHPNSGGTNYAQKFQGRVTMTRDTSISTAYMGLSSLRSDDTAVYYCARDGTSSFDYWGQGTLVTVSS
VL: DIQMTQSPSSVSASVGDRVTITCRASQGISRWLAWYQQKPGKAPKLLIYGASSLQSGVPSRFSGSGSGTDFTLTISSLQPEDFAIYYCQQANSFPFTFGPGTKVDIK
notes: as for B1
B3: 72G9 (antibody, V domains shown)
VH: EVQLVESGGGLVKPGGSLRLSCAASGFTFSSYSMNWVRQAPGKGLEWVSSISGSSSYIYYADSVKGRFTISRDNAKNSLYLQMNSLRAEDTAVYFCARGGSRGFDPWGQGTLVTVSS
VL: B2 VL with V11L, G28S, S30T, R31S, W32Y, A34N, G50T, I85T, A91S, N92H
notes: as for B1
B4: 184E7 (antibody, V domains shown)
VH: QVQLVQSGAEVKTPGASVKVSCRASGYTFTSYNMHWVRQVPGQGLEWMGWINPNNGGSNYTQKFQGRVTMTRDTSISTAYMELSRLRSDDTAVYYCARKFGDWGQGTLVTVSS
VL: DIQMTQSPSSRSASIGERVTITCRASQGISNYLAWIQQKPGTAPKSLIYAASSLQSGVSSRFSGSGFGTDFTITISSVQREDFATYYCQQYNGYPFTFGHGTKVDIK
notes: as for B1
B5: 12D2 (antibody, V domains shown)
VH: EVQLVESGGGLVKPGGSLRLSCAASGFTFSSYSMNWVRQAPGKGLEWVSSISSSSSYIYYADSVKGRFTISRDNAKNSLYLQMNSLRAEDTAVYYCARLGDYWGQGTLVAVSS
VL: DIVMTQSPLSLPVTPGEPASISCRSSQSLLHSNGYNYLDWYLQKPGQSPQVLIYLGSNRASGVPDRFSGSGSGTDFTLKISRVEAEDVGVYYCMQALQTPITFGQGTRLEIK
notes: as for B1
B6: 6G7 (antibody, V domains shown)
VH: QVQLVESGGGVVQPGRSLRLSCAASGFTFSSYGMHWVRQTPGKGLEWVAIISYVGKNKYYADSVKGRFTISRDNSKNTLYLQMNSLRAEDTAVYYCARRGNSYGGYGMDVWGQGTTVTVSS
VL: DIQMTQSPSSRSASVGDRVTITCQASQDISNYLNWCQQKPGKALKLLIYDASTLETGVPSRFSGSGSGTDFTFTISSVQPEDIATYYCQQYDNVPITFGQGTRLEIK
notes: as for B1

The binders below were run against T1, Mouse ASGR-1 (assay: FACS on transfected HEK 293 cells or membrane preps on beads; Y = signal at least 2x irrelevant IgG).
In short: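 Antibodies at normalized concentrations bound 1 h at 4° C to HEK 293 cells expressing each antigen, then Alexa Fluor 647 anti-Fc plus 7-AAD 15 min at 4° C, flow cytometry; empty-vector cells as negative. Alternatively, species ASGR-1 membrane preps on streptavidin beads, antibody 1 h RT, Alexa Fluor 488 anti-Fc; FACS buffer with 1 mM CaCl2 throughout.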

binding result	Binder
binds	B1
binds	B2
binds	B3
binds	B4
binds	B5

Each binder was assayed against T2, Human ASGR-2 (assay: FACS on transfected HEK 293 cells; Y = signal at least 2x irrelevant IgG).
Procedure: Human ASGR-1-specific, ligand competing antibody samples were tested for binding to ASGR-1 from other species (cynomologus monkey ASGR-1, mouse ASGR-1, rat ASGR-1, dog ASGR-1, and pig ASGR-1) as well as to human ASGR-2 in FACS binding assays at normalized antibody concentrations. For cell-based assays, HEK 293 cells expressing the appropriate antigen of interest were mixed with antibody sample or controls, incubated for 1 hour at 4° C., and then washed twice. Cells with bound antibody were then incubated with Alexa Fluor® 647 IgG Fc fragment-specific detection antibody and 7-AAD viability stain for 15 minutes at 4° C., washed once and resuspended in FACS buffer. Samples were analyzed using a BD Accuri™ Flow Cytometer and an Intellicyt HyperCyt Autosampler. As a negative control, supernatants and controls were also screened against HEK 293 cells transfected with empty parental vector. […] For membrane-prep binding assays, ASGR-1 species specific membrane preps were used to coat LumAvidin® microspheres (beads) and tested for binding to selected hybridoma supernatants or controls. Briefly, ASGR-1 species specific membrane preps were incubated with streptavidin-coated LumAvidin® beads for 45 minutes in the dark at room temperature and washed twice. Beads were resuspeneded in FACS buffer containing Stabilguard®. […] Samples were analyzed using an Intellicyt iQue™ Screener Platform. […]

binding result	Binder
binds	B6
